T1: Isl-1-Myc (UniProt P61372 1-349)
T1 sequence: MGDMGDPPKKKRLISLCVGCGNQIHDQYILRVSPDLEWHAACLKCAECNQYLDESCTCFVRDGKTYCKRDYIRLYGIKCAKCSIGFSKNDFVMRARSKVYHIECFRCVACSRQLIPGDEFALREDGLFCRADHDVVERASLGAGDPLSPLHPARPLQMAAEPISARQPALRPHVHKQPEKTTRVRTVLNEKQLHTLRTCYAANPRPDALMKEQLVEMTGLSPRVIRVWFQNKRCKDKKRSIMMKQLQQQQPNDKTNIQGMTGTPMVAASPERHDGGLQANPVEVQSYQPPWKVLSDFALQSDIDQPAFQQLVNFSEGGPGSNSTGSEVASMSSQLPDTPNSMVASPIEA

B1: Pdx1 Area I-4 (dsDNA)
DNA 1: GTATCACCCATAATGGATTTAGCCACCT
DNA 2: AGGTGGCTAAATCCATTATGGGTGATAC
B2: Pdx1 Area II-3 (dsDNA)
DNA 1: AATGCATGCAATTAGACCAGAAGTGCTAA
DNA 2: TTAGCACTTCTGGTCTAATTGCATGCATT
B3: Pdx1 Area IV-4 (dsDNA)
DNA 1: TTATTGCCTGCCTTTAATTGTACTTAT
DNA 2: ATAAGTACAATTAAAGGCAGGCAATAA

These binders were tested against T1, Isl-1-Myc (assay: competition).

Binding result, binds:
B1, B2, B3

Source: article PMC4237994
